Consider 2 molecules from US20200239593A1 (AIMM THERAPEUTICS B V, published 2020).

In assay [1] the target is T1, snRNP200 (endogenous, from THP-1 cells) (human, UniProt O75643 1-2136).
T1 construct: also called U5-snRNP
The assay is described as follows: immunoprecipitation from THP-1 membrane lysate, Western blot with mouse-anti-human snRNP200. The procedure: FIG. 20A. THP-1 membrane lysate was incubated with AT12-023 and AT13-031, with the influenza-specific antibody AT10-002 or with marker alone.
THP-1 cells were lysed and precleared with an irrelevant antibody (in-house generated RSV antibody D25) and beads to remove non specific binding proteins. Precleared lysate was then incubated with bead-labeled AML-specific antibodies or with the influenza specific antibody AT10-002 as a negative control (3 hrs at 4° C.). Antibody-incubated lysates were washed five times, bound proteins were eluted from the THP-1 lysate and then run on an SDS-PAGE gel. Proteins were blotted and stained with Ponseau S to reveal total protein. The blot was blocked with BSA and incubated with mouse-anti-snRNP200 (Millipore, clone 3B6.1) or Rabbit-anti-HMGB1 (Abcam) for Western blot analysis. Intracelllar staining for snRNP200 was performed after fixing and permeabilizing THP-1 cells with methanol (Sigma) and permeabilization buffer containing triton X-100 (Sigma), EDTA (Gibco) and BSA (Roche), followed by incubation with rabbit-anti-human snRNP200 antibody (Sigma) overnight at 4° C.
(In general: A western blot detects proteins with antibodies after separation by electrophoresis.)

The target in assay [2] is T2, snRNP200-flag construct (UniProt O75643 1-2136, limits assumed).
T2 construct: mature; Used as lysate at 3 ug/ml, not purified; also called full-length snRNP200 with an N-terminal FLAG tag; not shown: N-terminal FLAG tag
T2 sequence (O75643 whole entry): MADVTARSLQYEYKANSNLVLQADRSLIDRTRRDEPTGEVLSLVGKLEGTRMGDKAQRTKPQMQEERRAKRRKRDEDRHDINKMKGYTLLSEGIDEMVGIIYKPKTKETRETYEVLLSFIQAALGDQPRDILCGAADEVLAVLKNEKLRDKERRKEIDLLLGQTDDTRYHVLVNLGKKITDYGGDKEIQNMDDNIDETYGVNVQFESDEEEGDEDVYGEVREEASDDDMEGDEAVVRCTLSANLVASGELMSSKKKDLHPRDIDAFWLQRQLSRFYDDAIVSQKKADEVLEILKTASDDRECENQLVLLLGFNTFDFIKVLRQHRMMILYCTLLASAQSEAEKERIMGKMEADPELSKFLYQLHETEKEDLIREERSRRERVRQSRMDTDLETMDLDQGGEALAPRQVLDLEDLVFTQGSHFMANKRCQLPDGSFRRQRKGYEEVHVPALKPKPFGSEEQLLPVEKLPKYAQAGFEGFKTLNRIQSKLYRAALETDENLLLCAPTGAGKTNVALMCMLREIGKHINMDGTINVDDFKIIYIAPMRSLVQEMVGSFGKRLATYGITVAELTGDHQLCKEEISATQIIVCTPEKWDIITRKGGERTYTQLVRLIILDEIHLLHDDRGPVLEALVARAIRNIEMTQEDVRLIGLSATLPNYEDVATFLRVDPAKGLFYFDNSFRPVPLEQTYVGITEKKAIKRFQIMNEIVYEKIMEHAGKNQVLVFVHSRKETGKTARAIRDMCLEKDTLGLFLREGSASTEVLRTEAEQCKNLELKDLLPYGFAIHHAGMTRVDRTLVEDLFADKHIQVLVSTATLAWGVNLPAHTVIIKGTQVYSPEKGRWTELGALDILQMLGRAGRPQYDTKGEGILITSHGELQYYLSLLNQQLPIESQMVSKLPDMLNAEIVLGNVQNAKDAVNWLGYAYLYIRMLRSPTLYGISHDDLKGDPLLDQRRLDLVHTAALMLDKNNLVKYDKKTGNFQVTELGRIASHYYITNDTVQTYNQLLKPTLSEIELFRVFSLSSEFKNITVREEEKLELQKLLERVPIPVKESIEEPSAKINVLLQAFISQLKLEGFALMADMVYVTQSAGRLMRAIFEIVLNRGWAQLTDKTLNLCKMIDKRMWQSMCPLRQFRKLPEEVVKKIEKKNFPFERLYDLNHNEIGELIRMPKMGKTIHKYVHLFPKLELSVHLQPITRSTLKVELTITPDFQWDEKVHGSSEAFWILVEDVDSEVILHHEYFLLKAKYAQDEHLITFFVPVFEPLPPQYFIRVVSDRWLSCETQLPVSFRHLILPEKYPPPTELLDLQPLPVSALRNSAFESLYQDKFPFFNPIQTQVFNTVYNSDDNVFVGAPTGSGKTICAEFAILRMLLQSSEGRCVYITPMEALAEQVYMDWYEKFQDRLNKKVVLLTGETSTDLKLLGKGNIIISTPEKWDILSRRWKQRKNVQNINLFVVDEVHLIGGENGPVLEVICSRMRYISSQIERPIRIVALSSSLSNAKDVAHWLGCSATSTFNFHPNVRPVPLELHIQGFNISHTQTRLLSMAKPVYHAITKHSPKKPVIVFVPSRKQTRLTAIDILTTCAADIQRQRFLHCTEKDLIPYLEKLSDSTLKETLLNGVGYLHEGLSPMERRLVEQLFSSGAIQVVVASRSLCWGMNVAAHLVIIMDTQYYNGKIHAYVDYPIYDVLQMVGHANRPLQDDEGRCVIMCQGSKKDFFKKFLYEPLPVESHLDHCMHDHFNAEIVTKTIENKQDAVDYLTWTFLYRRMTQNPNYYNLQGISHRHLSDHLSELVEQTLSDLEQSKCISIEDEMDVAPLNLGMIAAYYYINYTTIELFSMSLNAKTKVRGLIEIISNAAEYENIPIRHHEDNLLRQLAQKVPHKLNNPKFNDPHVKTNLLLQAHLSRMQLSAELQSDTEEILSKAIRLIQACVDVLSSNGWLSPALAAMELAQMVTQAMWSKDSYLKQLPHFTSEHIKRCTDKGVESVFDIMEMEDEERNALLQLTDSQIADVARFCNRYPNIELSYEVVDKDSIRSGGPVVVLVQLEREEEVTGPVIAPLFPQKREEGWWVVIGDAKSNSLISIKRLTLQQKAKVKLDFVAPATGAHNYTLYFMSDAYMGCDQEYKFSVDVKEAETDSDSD
The assay is described as follows: capture ELISA: antibody coated, snRNP200-flag lysate (3 ug/ml) captured, anti-flag HRP detection. On the procedure:
FIG. 20B. AML specific antibodies AT12-019, AT12-023, AT13-031 and AT13-037 or commercially available snRNP200-specific antibodies snRNP200 453 and snRNP200 454 were coated on an ELISA plate, incubated with a snRNP200-flag construct for capturing and with anti-flag HRP for detection.
HEK 293T cells were transfected with an expression vector containing the full-length open reading frame of snRNP200 with an N-terminal FLAG tag. At 2 days after transfection cells were harvested and lysed in lysis buffer containing protease inhibitors. This lysate was cleared and protein concentration was measured. AML specific antibodies AT12-019, AT12-023, AT13-031 and AT13-037 or commercially available snRNP200 specific antibodies (Bethyl labs) were then coated on an ELISA plate. The lysate was added at a concentration of 3 μg/ml for capturing. After extensive washing, captured snRNP200-flag was detected with a monoclonal mouse anti-flag HRP antibody (Sigma-Aldrich, clone M2).
(In general: ELISA stands for enzyme-linked immunosorbent assay.)

T1 sequence (O75643 whole entry): as above

B1: AT12-023 (antibody, V domains shown)
VH: QVQLQQWGAGLLKPSETLSLTCAVYGGSFSGYYWSWIRQPPGKGLEWIGEINHSGSTNYNPSLKSRVTISVDTSKNQFSLKLSSVTAADTAVYYCARGRSTSPLDYYYYYMDVWAKGTTVTVSS
VL: SSELTQDPAVSVALGQTVRITCQGDFLRSYYASWYQQKPGQAPVLVIFGKNKRPSGIPDRFSGSSSGNTASLTITGAQAEDEADYYCNSRDRSGNHLVFGGGTKLTVL
notes: Human antibody from AML patient donor 59; also called antibody AT12-023
For the molecule B1, the binding result in assay [1] was “binds”.

B2: AT12-019 (antibody, IgG1, V domains shown)
VH: EVHLLESGGGLVQPGGSLRLSCAASGFTFSSYAMSWVRQAPGKGLEWVSTIRASGGSTSYADSVKGRFTISRDNSQSRLYLQMNSLTAEDTAVYYCAKSPAMIRGVRGGDYFDYWGQGTLVTVSS
VL: AIRLTQSPSSVSASTGDRVTITCRASQAFSSYLVWYQQKPGKAPNLLIYATSTLQGGVPSRFSGSGSGTDFTLTISNLQSEDFATYYCQQYYSYPPTFGQGTKLEIK
notes: Human antibody from AML patient donor 59; also called antibody AT12-019
For the molecule B2, the binding result in assay [2] is listed as “no binding”.
